Measured values published in PMC9156947.

Experiments:
C10-DDB1M381/2 = assay: tripartite Nanoluc system (luciferase complementation); settings: HepG2 cells; co-transfected with a plasmid expressing Nano1-7; luciferase activity measured 48 h post-transfection; parent: 100%
C10-DDB1 = C10-DDB1 (UniProt Q16531); assay: as above; settings: HepG2 cells; co-transfected with a plasmid expressing Nano1-7; luciferase activity measured 48 h post-transfection; parent: 100%
N8-HBx = N8-HBx (UniProt P03165); assay: as above; settings: HepG2 cells; co-transfected with a plasmid expressing Nano1-7; luciferase activity measured 48 h post-transfection; parent: 100%
[1] = molecular target: C10-STAU1 with the RBD2 domain deleted (UniProt O95793); assay: split reporter (BiFC, NanoBiT); tripartite Nanoluc luciferase: C10-tagged and N8-tagged proteins co-transfected with a plasmid expressing Nano1-7 into HepG2 cells; luciferase activity measured 48 h post-transfection

C10-DDB1, sequence (Q16531 whole entry): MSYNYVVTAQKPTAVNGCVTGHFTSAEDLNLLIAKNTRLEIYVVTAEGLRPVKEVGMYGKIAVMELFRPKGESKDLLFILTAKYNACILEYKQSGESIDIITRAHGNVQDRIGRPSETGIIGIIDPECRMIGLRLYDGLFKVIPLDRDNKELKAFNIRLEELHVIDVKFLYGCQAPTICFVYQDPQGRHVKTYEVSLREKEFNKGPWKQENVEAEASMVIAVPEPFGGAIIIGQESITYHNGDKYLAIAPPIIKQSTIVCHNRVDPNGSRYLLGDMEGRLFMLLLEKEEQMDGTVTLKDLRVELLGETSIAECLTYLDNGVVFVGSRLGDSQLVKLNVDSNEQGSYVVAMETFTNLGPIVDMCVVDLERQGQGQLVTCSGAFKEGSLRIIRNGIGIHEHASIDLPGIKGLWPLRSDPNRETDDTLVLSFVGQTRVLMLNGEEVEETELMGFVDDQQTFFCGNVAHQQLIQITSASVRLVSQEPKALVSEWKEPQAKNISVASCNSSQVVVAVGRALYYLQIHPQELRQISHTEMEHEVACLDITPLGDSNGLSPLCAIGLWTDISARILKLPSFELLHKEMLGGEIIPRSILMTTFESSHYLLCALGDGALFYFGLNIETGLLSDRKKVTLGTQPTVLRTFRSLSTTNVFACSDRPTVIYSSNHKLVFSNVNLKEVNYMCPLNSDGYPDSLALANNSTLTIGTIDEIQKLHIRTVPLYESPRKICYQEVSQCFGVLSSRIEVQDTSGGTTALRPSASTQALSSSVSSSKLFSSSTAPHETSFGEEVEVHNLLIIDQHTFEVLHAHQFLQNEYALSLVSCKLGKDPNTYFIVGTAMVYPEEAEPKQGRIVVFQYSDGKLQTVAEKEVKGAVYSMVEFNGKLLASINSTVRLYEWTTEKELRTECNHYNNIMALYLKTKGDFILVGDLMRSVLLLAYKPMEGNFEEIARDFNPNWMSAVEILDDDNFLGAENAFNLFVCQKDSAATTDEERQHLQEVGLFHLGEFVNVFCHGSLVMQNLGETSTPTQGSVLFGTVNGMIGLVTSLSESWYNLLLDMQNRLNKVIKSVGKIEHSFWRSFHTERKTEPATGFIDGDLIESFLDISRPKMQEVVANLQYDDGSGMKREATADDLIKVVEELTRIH

## m3; m4 HBx:96E; DDB1:M381/2
C10-DDB1M381/2
  percent of parent: 0.2%

## N8-HBx (from UniProt P03165) 96E
C10-DDB1
  percent of parent: 0.25%

## C10-DDB1 (from UniProt Q16531) M381/2
N8-HBx
  percent of parent: 0.68%

## N8-HBx (from UniProt P03165 1-154) (natural protein)
[1]
  fold luminescence against wild type STAU1: 2 fold
